Source: publication PMC3798644, “Molecular Basis for Oligomeric-DNA Binding and Episome Maintenance by KSHV LANA” (PLoS Pathogens, 2013)

B1: LANA C-terminal DNA binding domain (residues 1011-1153), wild type (domain or fragment)
chain: HPRYQQPPVPYRQIDDCPAKARPQHIFYRRFLGKDGRRDPKCQWKFAVIFWGNDPYGLKKLSQAFQFGGVKAGPVSCLPHPGPDQSPITYCVYVYCQNKDTSKKVQMARLAWEASHPLAGNLQSSIVKFKKPLPLTQPGENQG
notes: source: E. coli, purified (Ni-NTA, tag cleaved with ULP1, second Ni-NTA, Superdex 75)

Legend:
[1] = biological target: the molecule itself; experiment: cross-linking; EGS, with a 1.2 molar excess of LBS1 DNA (unlabeled 21-mer); 200 mM NaCl, 20 mM HEPES pH 7.4, 1 mM DTT, room temperature; step: dimers and tetramers to higher oligomers
[2] = biological target: T1, His-SMT3-BRD2 ET domain, long form (BRD2 633-801) (UniProt P25440 633-801); experiment: pull-down; His-SMT3-BRD ET domain held on Ni-NTA resin; untagged LANADBD or EBNA1DBD added; 200 mM NaCl, 20 mM HEPES, 5 mM BME, pH 8.0; washed with 10 CV; eluted with 300 mM imidazole; settings: both partners purified
T1 construct: also called BRD2L

[3] = biological target: the molecule itself; experiment: cross-linking; EGS, without DNA; 200 mM NaCl, 20 mM HEPES pH 7.4, 1 mM DTT, room temperature; samples boiled and run on gels
[4] = biological target: B1; experiment: pull-down; His-SMT3-BRD ET domain held on Ni-NTA resin; untagged LANADBD or EBNA1DBD added; 200 mM NaCl, 20 mM HEPES, 5 mM BME, pH 8.0; washed with 10 CV; eluted with 300 mM imidazole; settings: both partners purified
LANA DBD wild-type = biological target: T2, LANA DBD wild-type (KSHV (HHV-8), UniProt Q9DUN0 825-967); experiment: fluorescence polarization; cooperative, Hill h > 1; Kd only in figure; FP: 200 mM NaCl, 20 mM HEPES, 1 mM DTT, (protein stock pH 7.4), 1 ug/mL BSA, 0.1 ug/mL poly(dA:dT), 0.001% Tween 20, 1 nM probe, room temperature 30 min; EMSA:; settings: protein: recombinant; tags: His-SMT3 removed by ULP1; chain copies: 2; label: 5' 6-carboxyfluorescein; blunt
T2 sequence: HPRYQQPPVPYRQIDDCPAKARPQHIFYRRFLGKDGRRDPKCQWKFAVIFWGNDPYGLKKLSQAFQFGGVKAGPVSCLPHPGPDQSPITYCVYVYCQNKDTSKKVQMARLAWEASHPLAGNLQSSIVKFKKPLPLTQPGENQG

B1 was tested, and the “stoichiometry N” value [1] was ~10, the binding result [2] was “binds” and the “stoichiometry N” value [3] was 4.

B2: His-SMT3-BRD2 ET domain, short form (BRD2 633-714) (domain or fragment, UniProt P25440 633-714, looked up)
chain: SEEEEESRPMSYDEKRQLSLDINKLPGEKLGRVVHIIQAREPSLRDSNPEEIEIDFETLKPSTLRELERYVLSCLRKKPRKP
notes: also called BRD2S
B2: binds [4].

B3: LBS1 21-mer FP probe (dsDNA)
DNA 1: AGCGGCCCCATGCCCGGGCGG
DNA 2: CCGCCCGGGCATGGGGCCGCT
B3: binds (LANA DBD wild-type).
